Here are results for 1 molecule from PMC6945068.

The experiment concerns the target purified 3xFlag-tagged B56γ (Xenopus laevis). The experiment can be described thus: pull-down (amylose beads) with immunoblot quantification. Particulars: chain shown with the change, purified Flag-B56γ, 23°C, 30 min, read off a plot. For orientation: In western blotting, separated proteins are transferred to a membrane and probed.

Sequence of purified 3xFlag-tagged B56γ (Xenopus laevis) (chain, as listed by the source): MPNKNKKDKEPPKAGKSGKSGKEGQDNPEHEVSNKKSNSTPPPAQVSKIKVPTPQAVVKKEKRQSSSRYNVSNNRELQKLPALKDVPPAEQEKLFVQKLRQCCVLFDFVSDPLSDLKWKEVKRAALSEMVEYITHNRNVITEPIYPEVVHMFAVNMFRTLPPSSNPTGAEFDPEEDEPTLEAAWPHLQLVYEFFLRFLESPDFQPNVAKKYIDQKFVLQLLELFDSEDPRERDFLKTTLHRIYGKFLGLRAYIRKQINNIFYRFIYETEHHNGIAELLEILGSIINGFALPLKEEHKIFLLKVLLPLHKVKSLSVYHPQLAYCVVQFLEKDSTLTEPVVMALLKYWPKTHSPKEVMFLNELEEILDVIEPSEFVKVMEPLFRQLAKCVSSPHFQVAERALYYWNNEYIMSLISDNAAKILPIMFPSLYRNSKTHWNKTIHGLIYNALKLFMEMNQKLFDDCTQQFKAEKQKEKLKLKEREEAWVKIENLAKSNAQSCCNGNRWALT

B1: MBP-fused Apc1-loop^500 wild type (residues 515-584 of Xenopus tropicalis Apc1), Q08D52 T532A; T539A; S558A (protein)
chain: GLAAPSLGMSNPMPRPSAPLESISAPAKPLNKHLAPMDEAGMLAPVPELRDSTRLHESTYLDDCTFHQFG
Take B1: the response is, setting by setting: (pre-incubated with Cdk2-cyclin A at 30°C for 60 min (+Cdk), parent: est. 5.3) 1.2 A.U; (without Cdk2-cyclin A pre-incubation, parent: 1.0) 1 A.U.
